# Where a chain is given by its changes, count along the chain named.
# Columns and labels:
# [1] = biological target: Phi-29 (exo-) DNA polymerase exo- (substitutions not given) (Bacteriophage phi29) (UniProt P03680); settings: tpol, unit not shown; unit assumed
# [2] = biological target: Phi-29 (exo-) T373R exo- (substitutions not given), T373R (Bacteriophage phi29) (UniProt P03680); settings: tpol, unit not shown; unit assumed
# [3] = biological target: Phi-29 (exo-) T373Y exo- (substitutions not given), T373Y (Bacteriophage phi29) (UniProt P03680); settings: tpol, unit not shown; unit assumed
# [4] = biological target: T1, His-tagged F-linker Phi29 DNA polymerase D169A (exo-) (Bacteriophage phi29, UniProt P03680 SEQ:27-596); experiment: FRET binding; Mg/Mn buffer; untreated, GST- or UDG/UGI-treated dots; settings: tags: His tag and F-linker, linked to quantum dot; label: 3' Alexa Fluor 647; hairpin with 5' overhang
# T1 chain: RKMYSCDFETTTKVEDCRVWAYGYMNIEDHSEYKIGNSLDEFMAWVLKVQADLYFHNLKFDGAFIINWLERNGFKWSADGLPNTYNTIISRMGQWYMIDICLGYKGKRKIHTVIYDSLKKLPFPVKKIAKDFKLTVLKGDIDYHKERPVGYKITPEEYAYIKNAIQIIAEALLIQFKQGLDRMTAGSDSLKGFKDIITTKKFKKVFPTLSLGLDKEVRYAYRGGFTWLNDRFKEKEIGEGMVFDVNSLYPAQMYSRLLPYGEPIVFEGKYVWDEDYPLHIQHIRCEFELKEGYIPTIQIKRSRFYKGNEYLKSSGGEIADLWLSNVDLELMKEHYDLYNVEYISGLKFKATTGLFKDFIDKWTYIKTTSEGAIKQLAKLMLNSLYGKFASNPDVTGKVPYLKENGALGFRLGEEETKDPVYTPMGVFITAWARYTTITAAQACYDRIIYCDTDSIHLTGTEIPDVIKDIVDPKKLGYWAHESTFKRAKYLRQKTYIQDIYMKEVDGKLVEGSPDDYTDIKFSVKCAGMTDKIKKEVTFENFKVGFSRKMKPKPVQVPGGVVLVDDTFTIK
# [5] = biological target: T2, HP1 Phi29 DNA polymerase D12A/D66A (Bacteriophage phi29, UniProt P03680 SEQ:26-600); experiment: FRET binding; 50 mM Tris pH 7.5, 50 mM NaCl, 10 mM MgCl2, 0.5 mM MnCl2; oligo 199 or 192 used; settings: tags: N-terminal His tag, linked to quantum dot; label: 3' Alexa Fluor 647; hairpin with 5' overhang
# T2 chain: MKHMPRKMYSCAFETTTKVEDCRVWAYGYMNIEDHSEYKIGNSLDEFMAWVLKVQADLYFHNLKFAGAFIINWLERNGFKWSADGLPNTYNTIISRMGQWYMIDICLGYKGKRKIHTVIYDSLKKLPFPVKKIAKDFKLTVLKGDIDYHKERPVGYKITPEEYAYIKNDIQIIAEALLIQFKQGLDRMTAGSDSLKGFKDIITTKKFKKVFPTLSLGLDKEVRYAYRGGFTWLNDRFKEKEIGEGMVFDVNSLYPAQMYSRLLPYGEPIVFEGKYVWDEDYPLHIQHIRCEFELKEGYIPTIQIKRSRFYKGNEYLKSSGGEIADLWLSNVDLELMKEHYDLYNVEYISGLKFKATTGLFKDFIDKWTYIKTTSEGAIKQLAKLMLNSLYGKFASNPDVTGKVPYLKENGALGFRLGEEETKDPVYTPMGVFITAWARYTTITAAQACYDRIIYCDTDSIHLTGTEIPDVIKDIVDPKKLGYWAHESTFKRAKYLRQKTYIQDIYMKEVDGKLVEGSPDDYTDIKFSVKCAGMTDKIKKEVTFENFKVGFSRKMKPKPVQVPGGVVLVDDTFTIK
# [6] = biological target: T3, PKA-tagged Phi29 DNA polymerase (Bacteriophage phi29, UniProt P03680 SEQ:30-599); experiment: FRET binding; settings: label: 3' Alexa Fluor 647-dC; hairpin with 5' overhang
# T3 chain: T1 chain with A164D
# Protocol: 50 μl of the primer/template was transferred from each well of row two into 50 μl of the sample in each well of row one.
# The microtiter plate was placed on the plate reader which was set to measure fluorescence at 605 nm and 670 nm with excitation at 450 nm. The results are depicted in FIG. 11. […] The ratio of 605 nm/670 nm signals is depicted in FIG. 11C.
# [7] = biological target: T4, Phi29 DNA polymerase (HRP-treated quantum dot conjugate) (Bacteriophage phi29, UniProt P03680 P03680:1-575); experiment: FRET binding; 250 nM oligo; settings: tags: His tag, label: 3' Alexa Fluor 647, hairpin with 5' overhang
# T4 chain: T2 chain with A12D, A66D
# Protocol: and 40 nM of the nanoparticle-polymerase conjugates in 50 mM Tris, 50 mM NaCl and 10 mM MgCl₂. The reaction was excited at 450 nm and emission (e.g., FRET) was detected as a ratio of intensities at 605/670 (dot emission/ALEXA FLUOR 647 emission).
# [8] = biological target: T1, His-tagged F-linker Phi29 DNA …; experiment: FRET binding; BSA-treated dots; dATP present; settings: tags: His tag and F-linker, linked to quantum dot; label: 3' Alexa Fluor 647; hairpin with 5' overhang
# Source text: The binding reactions contained: 1× extension buffer, A1 nanoparticles-phi29 conjugates (or phi29 non-conjugated), oligonucleotide 229, and dATP. The binding reactions were serially diluted. […] The ratio of 605 nm/670 nm signals is depicted in FIG. 15C.
molecule,measurement,setting,value
CGTTAACCGCCCGCTCCTTTGCAAC / GTTGCAAAGGAGCGGGCG [stopped-flow template/primer],activity,[1],11 ms
same,activity,[2],15 ms
same,activity,[3],14 ms
TTATCTTTGTGGGTGACAGGTTTTTCCTGTCACCC (structured_DNA) [oligo 199],binding result,[4],binds
same,binding result,[5],binds
TTATCTTTGTGGGTGACAGGTTTTTCCTGTCACCC (structured_DNA) [JX338],binding result,[6],binds
TTATCTTTGTGGGTGACAGGTTTTTCCTGTCACC (structured_DNA) [AF647 hairpin (Example 15)],binding result,[7],binds
TTTTTGCGGGTGACAGGTTTTTCCTGTCACCC (structured_DNA) [oligo 229],binding result,[8],binds
